Test results as given in patent US20200121803A1 (published 2020).

B1: CD98 (CL-huAb110)-CZ (antibody, human IgG1, kappa, L234A L235A, V domains shown)
VH: EVQLVQSGAEVKKPGASVKVSCKASGFTFSDYTMAWVRQAPGQGLEWVATIIYDARGTYYRDAVKGRFTITRDNSTSTLYLELSSLRSEDTAVYYCARQSDDTYYYWGYFDYWGQGTMVTVSS
VL: DIVMTQTPLSLPVTPGEPASINCKSSQSLLFSGNQKNYLAWYLQKPGQSPQLLIYWASTRQSGVPDRFSGSGSGTDFTLKISRVEAEDVGIYYCQQYYSSPYTFGQGTKLEIKR
modifications: synthon CZ on reduced interchain cysteines (sites not given)
B2: CD98 (CL-huAb110)-YY (antibody, human IgG1, kappa, L234A L235A, V domains shown)
VH: EVQLVQSGAEVKKPGASVKVSCKASGFTFSDYTMAWVRQAPGQGLEWVATIIYDARGTYYRDAVKGRFTITRDNSTSTLYLELSSLRSEDTAVYYCARQSDDTYYYWGYFDYWGQGTMVTVSS
VL: DIVMTQTPLSLPVTPGEPASINCKSSQSLLFSGNQKNYLAWYLQKPGQSPQLLIYWASTRQSGVPDRFSGSGSGTDFTLKISRVEAEDVGIYYCQQYYSSPYTFGQGTKLEIKR
modifications: synthon YY on reduced interchain cysteines (sites not given)
B3: CD98 (CL-huAb102)-TX (antibody, human IgG1, kappa, L234A L235A, V domains shown)
VH: EVQLVESGGGLVQPGGSLRLSCATSGFTFIDYYMSWVRQAPGKGLEWLGFIRNKANRYTTEYSASVKGRFTISRDNSKSILYLQMNSLKTEDTAVYYCTRDRPAWFVYWGQGTLVTVSS
VL: DIVMTQTPLSLPVTPGEPASISCKSSQSLLYSSNQKNYLAWYLQKPGQSPQLLIYWASTRESGVPDRFSGSGSGTDFTLKISRVEAEDVGVYYCQQYYSYPYTFGGGTKVEIKR
modifications: synthon TX on reduced interchain cysteines (sites not given)
B4: CD98 (CL-huAb110)-TX (antibody, human IgG1, kappa, L234A L235A, V domains shown)
VH: EVQLVQSGAEVKKPGASVKVSCKASGFTFSDYTMAWVRQAPGQGLEWVATIIYDARGTYYRDAVKGRFTITRDNSTSTLYLELSSLRSEDTAVYYCARQSDDTYYYWGYFDYWGQGTMVTVSS
VL: DIVMTQTPLSLPVTPGEPASINCKSSQSLLFSGNQKNYLAWYLQKPGQSPQLLIYWASTRQSGVPDRFSGSGSGTDFTLKISRVEAEDVGIYYCQQYYSSPYTFGQGTKLEIKR
modifications: synthon TX on reduced interchain cysteines (sites not given)
B5: CD98 (CL-huAb104)-TV (antibody, human IgG1, kappa, L234A L235A, V domains shown)
VH: EVQLVESGGGLVQPGGSLRLSCATSGFTFIDYYMSWVRQAPGKGLEWLGFIRNKAYGYTTEYSASVKGRFTISRDNSKSILYLQMNSLKTEDTAVYYCTRDRPAWFVYWGQGTLVTVSS
VL: DIVMTQTPLSLPVTPGEPASISCKSSQSLLYSSNQKNYLAWYLQKPGQSPQLLIYWASTRESGVPDRFSGSGSGTDFTLKISRVEAEDVGVYYCQQYYSYPYTFGGGTKVEIKR
modifications: synthon TV on reduced interchain cysteines (sites not given)
B6: CD98 (CL-huAb104)-TX (antibody, human IgG1, kappa, L234A L235A, V domains shown)
VH: EVQLVESGGGLVQPGGSLRLSCATSGFTFIDYYMSWVRQAPGKGLEWLGFIRNKAYGYTTEYSASVKGRFTISRDNSKSILYLQMNSLKTEDTAVYYCTRDRPAWFVYWGQGTLVTVSS
VL: DIVMTQTPLSLPVTPGEPASISCKSSQSLLYSSNQKNYLAWYLQKPGQSPQLLIYWASTRESGVPDRFSGSGSGTDFTLKISRVEAEDVGVYYCQQYYSYPYTFGGGTKVEIKR
modifications: synthon TX on reduced interchain cysteines (sites not given)
B7: CD98 (CL-huAb108)-TX (antibody, human IgG1, kappa, L234A L235A, V domains shown)
VH: EVQLVQSGAEVKKPGASVKVSCKASGFTFSDYTMAWVRQAPGQGLEWVATIIYSGRGTYYRDAVKGRFTITRDNSTSTLYLELSSLRSEDTAVYYCARQSDDTYYYWGYFDYWGQGTMVTVSS
VL: DIVMTQTPLSLPVTPGEPASINCKSSQSLLFSGNQKNYLAWYLQKPGQSPQLLIYWASTRQSGVPDRFSGSGSGTDFTLKISRVEAEDVGIYYCQQYYDVPYTFGQGTKLEIKR
modifications: synthon TX on reduced interchain cysteines (sites not given)
B8: CD98 (CL-huAb110)-AAA (antibody, human IgG1, kappa, L234A L235A, V domains shown)
VH: EVQLVQSGAEVKKPGASVKVSCKASGFTFSDYTMAWVRQAPGQGLEWVATIIYDARGTYYRDAVKGRFTITRDNSTSTLYLELSSLRSEDTAVYYCARQSDDTYYYWGYFDYWGQGTMVTVSS
VL: DIVMTQTPLSLPVTPGEPASINCKSSQSLLFSGNQKNYLAWYLQKPGQSPQLLIYWASTRQSGVPDRFSGSGSGTDFTLKISRVEAEDVGIYYCQQYYSSPYTFGQGTKLEIKR
modifications: synthon AAA on reduced interchain cysteines (sites not given)
B9: CD98 (CL-huAb108)-YY (antibody, human IgG1, kappa, L234A L235A, V domains shown)
VH: EVQLVQSGAEVKKPGASVKVSCKASGFTFSDYTMAWVRQAPGQGLEWVATIIYSGRGTYYRDAVKGRFTITRDNSTSTLYLELSSLRSEDTAVYYCARQSDDTYYYWGYFDYWGQGTMVTVSS
VL: DIVMTQTPLSLPVTPGEPASINCKSSQSLLFSGNQKNYLAWYLQKPGQSPQLLIYWASTRQSGVPDRFSGSGSGTDFTLKISRVEAEDVGIYYCQQYYDVPYTFGQGTKLEIKR
modifications: synthon YY on reduced interchain cysteines (sites not given)
B10: CD98 (CL-huAb104)-AAA (antibody, human IgG1, kappa, L234A L235A, V domains shown)
VH: EVQLVESGGGLVQPGGSLRLSCATSGFTFIDYYMSWVRQAPGKGLEWLGFIRNKAYGYTTEYSASVKGRFTISRDNSKSILYLQMNSLKTEDTAVYYCTRDRPAWFVYWGQGTLVTVSS
VL: DIVMTQTPLSLPVTPGEPASISCKSSQSLLYSSNQKNYLAWYLQKPGQSPQLLIYWASTRESGVPDRFSGSGSGTDFTLKISRVEAEDVGVYYCQQYYSYPYTFGGGTKVEIKR
modifications: synthon AAA on reduced interchain cysteines (sites not given)
B11: CD98 (CL-huAb108)-TV (antibody, human IgG1, kappa, L234A L235A, V domains shown)
VH: EVQLVQSGAEVKKPGASVKVSCKASGFTFSDYTMAWVRQAPGQGLEWVATIIYSGRGTYYRDAVKGRFTITRDNSTSTLYLELSSLRSEDTAVYYCARQSDDTYYYWGYFDYWGQGTMVTVSS
VL: DIVMTQTPLSLPVTPGEPASINCKSSQSLLFSGNQKNYLAWYLQKPGQSPQLLIYWASTRQSGVPDRFSGSGSGTDFTLKISRVEAEDVGIYYCQQYYDVPYTFGQGTKLEIKR
modifications: synthon TV on reduced interchain cysteines (sites not given)
B12: CD98 (CL-huAb102)-AAA (antibody, human IgG1, kappa, L234A L235A, V domains shown)
VH: EVQLVESGGGLVQPGGSLRLSCATSGFTFIDYYMSWVRQAPGKGLEWLGFIRNKANRYTTEYSASVKGRFTISRDNSKSILYLQMNSLKTEDTAVYYCTRDRPAWFVYWGQGTLVTVSS
VL: DIVMTQTPLSLPVTPGEPASISCKSSQSLLYSSNQKNYLAWYLQKPGQSPQLLIYWASTRESGVPDRFSGSGSGTDFTLKISRVEAEDVGVYYCQQYYSYPYTFGGGTKVEIKR
modifications: synthon AAA on reduced interchain cysteines (sites not given)
B13: CD98 (CL-huAb102)-TV (antibody, human IgG1, kappa, L234A L235A, V domains shown)
VH: EVQLVESGGGLVQPGGSLRLSCATSGFTFIDYYMSWVRQAPGKGLEWLGFIRNKANRYTTEYSASVKGRFTISRDNSKSILYLQMNSLKTEDTAVYYCTRDRPAWFVYWGQGTLVTVSS
VL: DIVMTQTPLSLPVTPGEPASISCKSSQSLLYSSNQKNYLAWYLQKPGQSPQLLIYWASTRESGVPDRFSGSGSGTDFTLKISRVEAEDVGVYYCQQYYSYPYTFGGGTKVEIKR
modifications: synthon TV on reduced interchain cysteines (sites not given)
B14: CD98 (CL-huAb110)-TV (antibody, human IgG1, kappa, L234A L235A, V domains shown)
VH: EVQLVQSGAEVKKPGASVKVSCKASGFTFSDYTMAWVRQAPGQGLEWVATIIYDARGTYYRDAVKGRFTITRDNSTSTLYLELSSLRSEDTAVYYCARQSDDTYYYWGYFDYWGQGTMVTVSS
VL: DIVMTQTPLSLPVTPGEPASINCKSSQSLLFSGNQKNYLAWYLQKPGQSPQLLIYWASTRQSGVPDRFSGSGSGTDFTLKISRVEAEDVGIYYCQQYYSSPYTFGQGTKLEIKR
modifications: synthon TV on reduced interchain cysteines (sites not given)
B15: CD98 (CL-huAb102)-YY (antibody, human IgG1, kappa, L234A L235A, V domains shown)
VH: EVQLVESGGGLVQPGGSLRLSCATSGFTFIDYYMSWVRQAPGKGLEWLGFIRNKANRYTTEYSASVKGRFTISRDNSKSILYLQMNSLKTEDTAVYYCTRDRPAWFVYWGQGTLVTVSS
VL: DIVMTQTPLSLPVTPGEPASISCKSSQSLLYSSNQKNYLAWYLQKPGQSPQLLIYWASTRESGVPDRFSGSGSGTDFTLKISRVEAEDVGVYYCQQYYSYPYTFGGGTKVEIKR
modifications: synthon YY on reduced interchain cysteines (sites not given)
B16: CD98 (CL-huAb108)-AAA (antibody, human IgG1, kappa, L234A L235A, V domains shown)
VH: EVQLVQSGAEVKKPGASVKVSCKASGFTFSDYTMAWVRQAPGQGLEWVATIIYSGRGTYYRDAVKGRFTITRDNSTSTLYLELSSLRSEDTAVYYCARQSDDTYYYWGYFDYWGQGTMVTVSS
VL: DIVMTQTPLSLPVTPGEPASINCKSSQSLLFSGNQKNYLAWYLQKPGQSPQLLIYWASTRQSGVPDRFSGSGSGTDFTLKISRVEAEDVGIYYCQQYYDVPYTFGQGTKLEIKR
modifications: synthon AAA on reduced interchain cysteines (sites not given)
B17: CD98 (CL-huAb104)-YY (antibody, human IgG1, kappa, L234A L235A, V domains shown)
VH: EVQLVESGGGLVQPGGSLRLSCATSGFTFIDYYMSWVRQAPGKGLEWLGFIRNKAYGYTTEYSASVKGRFTISRDNSKSILYLQMNSLKTEDTAVYYCTRDRPAWFVYWGQGTLVTVSS
VL: DIVMTQTPLSLPVTPGEPASISCKSSQSLLYSSNQKNYLAWYLQKPGQSPQLLIYWASTRESGVPDRFSGSGSGTDFTLKISRVEAEDVGVYYCQQYYSYPYTFGGGTKVEIKR
modifications: synthon YY on reduced interchain cysteines (sites not given)

Molecular target: T1, human CD98, endogenously expressed on Molt-4 human acute lymphoblastic leukemia cells (human)
T1 chain: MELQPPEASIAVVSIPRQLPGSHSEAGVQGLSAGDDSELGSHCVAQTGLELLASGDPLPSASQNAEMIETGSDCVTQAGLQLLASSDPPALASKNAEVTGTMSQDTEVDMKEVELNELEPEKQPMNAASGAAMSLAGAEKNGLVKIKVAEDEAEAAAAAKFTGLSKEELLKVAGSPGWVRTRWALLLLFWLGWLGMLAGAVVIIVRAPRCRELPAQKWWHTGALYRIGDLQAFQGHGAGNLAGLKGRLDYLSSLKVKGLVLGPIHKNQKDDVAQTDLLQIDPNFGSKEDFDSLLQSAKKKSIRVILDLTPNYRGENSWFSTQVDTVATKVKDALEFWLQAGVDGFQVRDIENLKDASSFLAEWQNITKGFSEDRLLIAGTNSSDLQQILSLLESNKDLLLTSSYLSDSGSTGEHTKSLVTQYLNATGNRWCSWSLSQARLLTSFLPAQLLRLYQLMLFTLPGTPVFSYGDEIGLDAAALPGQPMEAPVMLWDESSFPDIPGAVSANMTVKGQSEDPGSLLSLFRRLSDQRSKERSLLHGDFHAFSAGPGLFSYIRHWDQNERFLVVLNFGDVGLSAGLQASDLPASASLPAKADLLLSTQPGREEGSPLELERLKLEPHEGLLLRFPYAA
Assay: cell-based or functional assay

| Binder | % Cell Viability at 50 nM | Molt4 IC50 |
| --- | --- | --- |
| B1 | 0.8% | 0.064 nM |
| B2 | 1.9% | 0.13 nM |
| B3 | 2.8% | 0.05 nM |
| B4 | 2.5% | 0.14 nM |
| B5 | 1.4% | 0.03 nM |
| B6 | 4.3% | 0.06 nM |
| B7 | 3% | 0.15 nM |
| B8 | 1.9% | 0.16 nM |
| B9 | 2.9% | 0.14 nM |
| B10 | 2.2% | 0.04 nM |
| B11 | 1.1% | 0.08 nM |
| B12 | 2.4% | 0.05 nM |
| B13 | 1.5% | 0.02 nM |
| B14 | 1% | 0.09 nM |
| B15 | 3.1% | 0.05 nM |
| B16 | 2.9% | 0.18 nM |
| B17 | 2.7% | 0.03 nM |
